The text below walks through data of publication PMC2806950, “Dissection of the DNA Mimicry of the Bacteriophage T7 Ocr Protein using Chemical Modification” (Journal of Molecular Biology, 2009).

Common to all, as to conditions: both partners purified
Test [1] has as its target T1, M.EcoKI, DNA methyltransferase component (M2S1) of the EcoKI type I R/M system (E. coli K12, UniProt P08957 1-529; P05719 1-464).
T1 construct: M subunit (DNA methyltransferase activity) of the EcoKI type I R/M system of E. coli K12; also called methyltransferase core; copies: 2 + 1
T1 sequence (looked up) 1: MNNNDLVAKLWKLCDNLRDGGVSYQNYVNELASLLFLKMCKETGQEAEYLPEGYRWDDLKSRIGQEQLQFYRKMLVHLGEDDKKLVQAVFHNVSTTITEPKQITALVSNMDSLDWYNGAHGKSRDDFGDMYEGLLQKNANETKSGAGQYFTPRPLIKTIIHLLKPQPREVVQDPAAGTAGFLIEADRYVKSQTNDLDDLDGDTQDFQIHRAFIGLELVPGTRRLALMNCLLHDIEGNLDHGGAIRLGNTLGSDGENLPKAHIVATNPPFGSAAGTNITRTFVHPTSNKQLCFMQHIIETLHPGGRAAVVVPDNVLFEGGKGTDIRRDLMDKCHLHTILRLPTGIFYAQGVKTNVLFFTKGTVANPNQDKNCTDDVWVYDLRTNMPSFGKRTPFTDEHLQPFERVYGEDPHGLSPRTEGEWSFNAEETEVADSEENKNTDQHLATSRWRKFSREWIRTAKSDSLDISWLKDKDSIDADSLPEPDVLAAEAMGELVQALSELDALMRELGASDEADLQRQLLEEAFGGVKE
T1 sequence (looked up) 2: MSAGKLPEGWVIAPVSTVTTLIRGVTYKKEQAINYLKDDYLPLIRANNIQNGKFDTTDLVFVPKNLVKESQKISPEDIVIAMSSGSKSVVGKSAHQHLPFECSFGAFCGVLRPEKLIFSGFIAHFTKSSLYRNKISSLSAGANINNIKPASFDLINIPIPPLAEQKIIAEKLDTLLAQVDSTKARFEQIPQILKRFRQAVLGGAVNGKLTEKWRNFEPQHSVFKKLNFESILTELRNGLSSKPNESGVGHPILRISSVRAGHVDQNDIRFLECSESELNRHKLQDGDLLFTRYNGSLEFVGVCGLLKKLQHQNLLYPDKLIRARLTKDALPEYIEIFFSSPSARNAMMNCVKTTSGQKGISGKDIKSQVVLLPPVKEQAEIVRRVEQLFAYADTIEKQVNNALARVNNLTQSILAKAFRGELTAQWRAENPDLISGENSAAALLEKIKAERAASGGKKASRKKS
Nature of the test: ITC; Ocr (typically 40 uM) titrated into M.EcoKI (4 uM); 20 mM Tris-HCl pH 8.0, 6 mM MgCl2, 7 mM 2-mercaptoethanol, 100 uM SAM, with or without 500 mM NaCl; 10 to 30 °C.

Test [2] deals with T1, M.EcoKI, DNA methyltransferase …. Nature of the test: ITC; as the Tris experiment but 20 mM Hepes in place of Tris-HCl, 25 °C, no NaCl. Background: In ITC the heat of successive injections is recorded.
The target is the same in test [3]. Description: fluorescence polarisation; competition with DNA: M.EcoKI titrated into 50 nM Ocr and 2 nM of a 21-bp DNA duplex fluorescently labelled at the 5' end; anisotropy of the DNA monitored. (In general: In fluorescence polarisation assays a small probe gives low polarisation when free and higher when bound to something large.)

B1: Ocr (overcome classical restriction) protein of bacteriophage T7, unmodified (natural protein, UniProt P03775 1-117, looked up)
chain: MAMSNMTYNNVFDHAYEMLKENIRYDDIRDTDDLHDAIHMAADNAVPHYYADIFSVMASEGIDLEFEDSGLMPDTKDVIRILQARIYEQLTIDLWEDAEDLLNEYLEEVEEYEEDEE
notes: Ocr, product of gene 0.3 of bacteriophage T7; 116-amino-acid monomer as printed; Homodimer; also called WT; wild type Ocr; source: plasmid pAR2993 with the gene encoding WT Ocr
By Kd is commonly meant a measure of binding affinity in units of concentration. A high value points to a looser complex. For the molecule B1, in test [1], the dH was -20.6 kcal/mol and the “stoichiometry N” value was 1 Ocr dimer per molecule of M.EcoKI. The molecule further showed a dH in test [2] of -21.5 kcal/mol. The same molecule had a Kd in test [3] of 0.044 nM.
